pIC50: −log10 of the molar value.
Tests used:
HLA-DRB1*0404 (human) = assay: radioligand binding
HLA-DRB1*0401 (human) = assay: radioligand binding

tyrosinase 365-381D (peptide) showed a pIC50 (HLA-DRB1*0404 (human)) of 7.51 and a pIC50 (HLA-DRB1*0401 (human)) of 7.77.

— publication PMC2363969, “gp100/pmel17 and tyrosinase encode multiple epitopes recognized by Th1-type CD4+T cells” (British Journal of Cancer, 2001)
